Assay [1] addresses EGFP-tagged bovine cationic amino acid transporter 1 (CAT1)/solute carrier family 7 member 1 (SLC7A1) (bovine) (UniProt F1N5P6). Nature of the assay: flow cytometry on cells. On the technique in general: A flow cytometer gives signals particle by particle.
Assay [2] addresses Feline CAT1/SLC7A1, endogenous in CC81-GREMG cells (feline (endogenous in CC81-GREMG)). The assay can be described thus: flow cytometry on cells.

In assay [1], “Bovine leukemia virus envelope glycoprotein (Env) on BLV particles (from UniProt P03380 34-301; P03380 302-515) (complex)” registered a percent APC-EGFP double-positive cells at 1 h of 18.7% and a percent APC-EGFP double-positive cells at 2 h of 23.7%. In assay [2], this substance showed a percent of cells bound with BLV particles (with control serum 1:10) of 57% and a percent of cells bound with BLV particles (with control serum 1:50) of 49%.

The values are drawn from publication PMC6894071.
